Source: IntAct's records for PubMed 25910212

B1: Iodotyrosine deiodinase 1 (Homo sapiens), Q6PHW0 (parent)
chain: MYFLTPILVAILCILVVWIFKNADRSMEKKKGEPRTRAEARPWVDEDLKDSSDLHQAEEDADEWQESEENVEHIPFSHNHYPEKEMVKRSQEFYELLNKRRSVRFISNEQVPMEVIDNVIRTAGTAPSGAHTEPWTFVVVKDPDVKHKIRKIIEEEEEINYMKRMGHRWVTDLKKLRTNWIKEYLDTAPILILIFKQVHGFAANGKKKVHYYNEISVSIACGILLAALQNAGLVTVTTTPLNCGPRLRVLLGRPAHEKLLMLLPVGYPSKEATVPDLKRKPLDQIMVTV
partner: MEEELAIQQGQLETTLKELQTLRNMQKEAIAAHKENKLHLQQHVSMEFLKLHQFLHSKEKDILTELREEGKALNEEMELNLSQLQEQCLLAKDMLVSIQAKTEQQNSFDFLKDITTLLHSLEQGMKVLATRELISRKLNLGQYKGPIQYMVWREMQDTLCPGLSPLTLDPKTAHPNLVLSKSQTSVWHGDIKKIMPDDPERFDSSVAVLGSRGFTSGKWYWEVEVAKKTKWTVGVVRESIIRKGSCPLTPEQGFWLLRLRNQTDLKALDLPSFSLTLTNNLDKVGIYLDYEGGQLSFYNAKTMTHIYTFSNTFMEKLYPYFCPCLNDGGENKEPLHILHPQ
B2: Prelamin-A/C (Homo sapiens), P02545-2 (parent)
chain: METPSQRRATRSGAQASSTPLSPTRITRLQEKEDLQELNDRLAVYIDRVRSLETENAGLRLRITESEEVVSREVSGIKAAYEAELGDARKTLDSVAKERARLQLELSKVREEFKELKARNTKKEGDLIAAQARLKDLEALLNSKEAALSTALSEKRTLEGELHDLRGQVAKLEAALGEAKKQLQDEMLRRVDAENRLQTMKEELDFQKNIYSEELRETKRRHETRLVEIDNGKQREFESRLADALQELRAQHEDQVEQYKKELEKTYSAKLDNARQSAERNSNLVGAAHEELQQSRIRIDSLSAQLSQLQKQLAAKEAKLRDLEDSLARERDTSRRLLAEKEREMAEMRARMQQQLDEYQELLDIKLALDMEIHAYRKLLEGEEERLRLSPSPTSQRSRGRASSHSSQTQGGGSVTKKRKLESTESRSSFSQHARTSGRVAVEEVDEEGKFVRLRNKSNEDQSMGNWQIKRQNGDDPLLTYRFPPKFTLKAGQVVTIWAAGAGATHSPPTDLVWKAQNTWGCGNSLRTALINSTGEEVAMRKLVRSVTVVEDDEDEDGDDLLHHHHVSGSRR
B3: Acetylcholine receptor subunit gamma (Homo sapiens), P07510-2 (parent)
chain: MHGGQGPLLLLLLLAVCLGAQGRNQEERLLADLMQNYDPNLRPAERDSDVVNVSLKLTLTNLISLNEREEALTTNVWIEMQWCDYRLRWDPRDYEGLWVLRVPSTMVWRPDIVLENKSQTYSTNEIDLQLSQEDGQTIEWIFIDPEAFTENGEWAIQHRPAKMLLDPAAPAQEAGHQKVVFYLLIQRKPLFYVINIIAPCVLISSVAILIHFLPAKAGGQKCTVAINVLLAQTVFLFLVAKKVPETSQAVPLISKYLTFLLVVTILIVVNAVVVLNVSLRSPHTHSMARGVRKVFLRLLPQLLRMHVRPLAPAAVQDTQSRLQNGSSGWSITTGEEVALCLPRSELLFQQWQRQGLVAAALEKLEKGPELGLSQFCGSLKQAAPAIQACVEACNLIACARHQQSHFDNGNEEWFLVGRVLDRVCFLAMLSLFICGTAGIFLMAHYNRVPALPFPGDPRPYLPSPD
partner: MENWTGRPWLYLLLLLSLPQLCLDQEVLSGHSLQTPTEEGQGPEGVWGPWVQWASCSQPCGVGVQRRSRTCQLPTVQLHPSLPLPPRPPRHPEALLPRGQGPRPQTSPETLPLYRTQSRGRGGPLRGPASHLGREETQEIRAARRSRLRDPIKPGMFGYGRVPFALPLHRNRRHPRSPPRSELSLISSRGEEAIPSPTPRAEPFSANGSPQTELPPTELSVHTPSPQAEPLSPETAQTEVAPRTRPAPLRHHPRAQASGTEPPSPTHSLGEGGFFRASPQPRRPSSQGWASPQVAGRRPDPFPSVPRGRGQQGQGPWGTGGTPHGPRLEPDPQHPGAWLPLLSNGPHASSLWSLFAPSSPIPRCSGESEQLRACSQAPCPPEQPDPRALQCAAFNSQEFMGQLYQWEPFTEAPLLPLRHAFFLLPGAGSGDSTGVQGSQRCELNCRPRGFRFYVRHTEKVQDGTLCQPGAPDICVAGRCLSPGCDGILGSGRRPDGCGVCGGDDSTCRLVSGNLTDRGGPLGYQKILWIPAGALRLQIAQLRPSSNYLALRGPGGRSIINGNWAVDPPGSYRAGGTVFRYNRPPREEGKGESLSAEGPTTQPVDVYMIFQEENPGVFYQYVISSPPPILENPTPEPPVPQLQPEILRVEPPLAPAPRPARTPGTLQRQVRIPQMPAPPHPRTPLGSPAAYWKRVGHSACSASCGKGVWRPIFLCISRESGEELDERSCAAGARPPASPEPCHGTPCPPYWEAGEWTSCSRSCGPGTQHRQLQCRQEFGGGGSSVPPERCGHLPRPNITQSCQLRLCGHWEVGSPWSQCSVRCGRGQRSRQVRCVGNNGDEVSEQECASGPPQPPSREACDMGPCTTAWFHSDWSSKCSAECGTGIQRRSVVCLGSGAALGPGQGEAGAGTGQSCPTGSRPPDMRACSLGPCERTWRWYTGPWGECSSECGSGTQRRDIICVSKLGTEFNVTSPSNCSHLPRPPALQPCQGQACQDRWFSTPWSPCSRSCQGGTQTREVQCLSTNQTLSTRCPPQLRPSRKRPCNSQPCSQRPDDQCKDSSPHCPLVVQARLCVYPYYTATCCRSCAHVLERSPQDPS
B4: X-linked retinitis pigmentosa GTPase regulator (Homo sapiens), Q92834 (parent)
chain: MREPEELMPDSGAVFTFGKSKFAENNPGKFWFKNDVPVHLSCGDEHSAVVTGNNKLYMFGSNNWGQLGLGSKSAISKPTCVKALKPEKVKLAACGRNHTLVSTEGGNVYATGGNNEGQLGLGDTEERNTFHVISFFTSEHKIKQLSAGSNTSAALTEDGRLFMWGDNSEGQIGLKNVSNVCVPQQVTIGKPVSWISCGYYHSAFVTTDGELYVFGEPENGKLGLPNQLLGNHRTPQLVSEIPEKVIQVACGGEHTVVLTENAVYTFGLGQFGQLGLGTFLFETSEPKVIENIRDQTISYISCGENHTALITDIGLMYTFGDGRHGKLGLGLENFTNHFIPTLCSNFLRFIVKLVACGGCHMVVFAAPHRGVAKEIEFDEINDTCLSVATFLPYSSLTSGNVLQRTLSARMRRRERERSPDSFSMRRTLPPIEGTLGLSACFLPNSVFPRCSERNLQESVLSEQDLMQPEEPDYLLDEMTKEAEIDNSSTVESLGETTDILNMTHIMSLNSNEKSLKLSPVQKQKKQQTIGELTQDTALTENDDSDEYEEMSEMKEGKACKQHVSQGIFMTQPATTIEAFSDEEVGNDTGQVGPQADTDGEGLQKEVYRHENNNGVDQLDAKEIEKESDGGHSQKESEAEEIDSEKETKLAEIAGMKDLREREKSTKKMSPFFGNLPDRGMNTESEENKDFVKKRESCKQDVIFDSERESVEKPDSYMEGASESQQGIADGFQQPEAIEFSSGEKEDDEVETDQNIRYGRKLIEQGNEKETKPIISKSMAKYDFKCDRLSEIPEEKEGAEDSKGNGIEEQEVEANEENVKVHGGRKEKTEILSDDLTDKAEDHEFSKTEELKLEDVDEEINAENVESKKKTVGDDESVPTGYHSKTEGAERTNDDSSAETIEKKEKANLEERAICEYNENPKGYMLDDADSSSLEILENSETTPSKDMKKTKKIFLFKRVPSINQKIVKNNNEPLPEIKSIGDQIILKSDNKDADQNHMSQNHQNIPPTNTERRSKSCTIL
partner: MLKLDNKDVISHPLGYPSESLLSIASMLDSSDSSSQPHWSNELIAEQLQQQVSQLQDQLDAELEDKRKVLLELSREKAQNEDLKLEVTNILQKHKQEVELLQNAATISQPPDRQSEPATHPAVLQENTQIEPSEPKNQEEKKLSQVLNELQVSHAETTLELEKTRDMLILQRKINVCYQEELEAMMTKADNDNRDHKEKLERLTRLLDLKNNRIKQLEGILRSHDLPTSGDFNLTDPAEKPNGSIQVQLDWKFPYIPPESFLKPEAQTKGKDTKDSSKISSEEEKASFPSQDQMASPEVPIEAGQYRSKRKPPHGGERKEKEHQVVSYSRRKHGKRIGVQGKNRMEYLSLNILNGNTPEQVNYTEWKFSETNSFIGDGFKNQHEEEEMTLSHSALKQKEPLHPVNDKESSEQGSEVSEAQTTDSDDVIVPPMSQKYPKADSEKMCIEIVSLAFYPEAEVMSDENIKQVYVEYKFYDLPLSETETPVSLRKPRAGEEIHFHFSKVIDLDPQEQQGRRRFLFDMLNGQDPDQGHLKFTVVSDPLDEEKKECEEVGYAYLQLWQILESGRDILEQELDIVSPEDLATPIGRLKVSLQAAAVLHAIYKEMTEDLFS

Variants of: B1
Details: with TRIM69, Q86WT6-2

Row | Variant | effect of a mutation on the interaction
1 | I116T | with no effect
2 | A220T | with no effect
3 | R101W | with no effect

Variants of: B2
Details: with syce1_human SYCE1, Q8N0S2
Chain of syce1_human SYCE1, Q8N0S2 (Q8N0S2 whole entry): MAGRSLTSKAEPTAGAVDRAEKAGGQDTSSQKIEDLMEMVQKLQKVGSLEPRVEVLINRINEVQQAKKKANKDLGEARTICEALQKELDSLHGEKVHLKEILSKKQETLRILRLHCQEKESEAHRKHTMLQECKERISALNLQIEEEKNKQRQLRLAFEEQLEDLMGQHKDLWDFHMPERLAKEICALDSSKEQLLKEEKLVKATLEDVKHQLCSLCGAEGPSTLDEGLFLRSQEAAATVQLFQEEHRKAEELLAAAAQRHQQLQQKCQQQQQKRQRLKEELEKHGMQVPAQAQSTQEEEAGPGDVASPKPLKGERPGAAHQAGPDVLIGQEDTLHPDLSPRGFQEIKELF

Row | Variant | effect of a mutation on the interaction
4 | R60G | disrupting interaction strength
5 | L162P | disrupting interaction strength
6 | R377L | disrupting interaction strength

Variants of: B3
Details: with ADAMTSL4, Q6UY14-3

Row | Variant | effect of a mutation on the interaction
7 | R86C | disrupting interaction strength
8 | V107G | disrupting interaction strength
9 | R187C | disrupting interaction strength

Variants of: B4
Details: with RPGRIP1, Q96KN7-4

Row | Variant | effect of a mutation on the interaction
10 | H98Q | disrupting interaction strength
